Drawing on patent US12667614B2, “Bacterial microcompartment virus-like particles” (National University of Singapore, priority 2020, dated 2026), this text covers Km, kcat and kcat/Km for 2 proteins.

Substrate in data set [1]: COc1ccccc1O
The experiment in a line: Steady-state kinetics of free APEX2 (guaiacol oxidation). The data set is classed as biochemical, pea. The note with it: other: free APEX2 10 nM, guaiacol 0.20 to 2.0 mM, H2O2 1 mM, TBS-50/350 pH 8.0, mean with standard error, triplicates, 30.0 °C. The method, then:
(§1) For APEX2, all reagents were made to the appropriate working concentrations using TBS-50/350 pH 8.0. Working solutions of guaiacol and H2O2, both at 10 mM, were prepared on the day of assay. The guaiacol solution was shaken vigorously at 30° C. to ensure complete dissolution before equilibration back to room temperature. The assay concentration for APEX2 was 10 nM, H2O2 1 mM and that for guaiacol ranged from 0.20 to 2.0 mM. Total reaction volume was 200 μL. Reactions were monitored by the absorbance of tetraguaiacol formed at 470 nm using a BioTek Synergy™ HT microplate reader. […] This time point was taken for initial rate, V0, measurement. Kinetic constants were obtained using non-linear least square Michaelis-Menten fitting in GraphPad Prism software.
To probe the capacity of the Cso-BMC for encasing enzymes of considerably different molecular sizes, an evolved pea cytosolic ascorbate peroxidase (APEX2), a 27.0 kDa monomer [Lam et al., Nature Methods 12(1): 51-54 (2015)], and E. coli beta-galactosidase (LacZ), a 466.0 kDa homotetramer, were chosen for encapsulation [Golan, et al., Biochimica et Biophysica Acta (BBA)—Bioenergetics, 1293(2): 238-242; Lam et al., Nature Methods 12(1): 51-54 (2015)]. […] Enzymes were also N-terminally tagged with the hexahistidine (Hiss) tag to facilitate downstream removal of unencapsulated enzymes that might co-purify with shells (Nichols, Kennedy, & Tullman-Ercek, 2019). Cso-PSIIH shells co-expressed with enzymes were constructed and purified. SDS-PAGE analysis and Western blotting confirmed the presence of the target enzymes in shell samples (FIG. 18A-B) and the average copy numbers of enzymes per shell were estimated by Coomassie blue densitometry (Table 8) [Hagen, A., et al., Nature Communications 9: 2881 (2018); Nichols et al., Methods in Enzymology, 617, 155-186 (2019)].
Encapsulation of an enzyme into a protein shell is known to alter the enzyme's catalytic properties in some cases. […]

Substrate in data set [2]: COc1ccccc1O
The experiment in a line: Steady-state kinetics of Cso-BMC encapsulated APEX2 (guaiacol oxidation). The data set is classed as biochemical, pea. The note with it: other: encapsulated APEX2 10 nM, guaiacol 0.20 to 2.0 mM, H2O2 1 mM, TBS-50/350 pH 8.0, mean with standard error, triplicates, 30.0 °C. The method, then:
as §1
To probe the capacity of the Cso-BMC for encasing enzymes of considerably different molecular sizes, an evolved pea cytosolic ascorbate peroxidase (APEX2), a 27.0 kDa monomer [Lam et al., Nature Methods 12(1): 51-54 (2015)], and E. coli beta-galactosidase (LacZ), a 466.0 kDa homotetramer, were chosen for encapsulation [Golan, et al., Biochimica et Biophysica Acta (BBA)—Bioenergetics, 1293(2): 238-242; Lam et al., Nature Methods 12(1): 51-54 (2015)]. […]

B1: Free APEX2 (evolved pea cytosolic ascorbate peroxidase), N-terminal His6, fused to S2CP(30); APEX2-S2CP(30), SEQ ID NO: 110 (Glycine max; A134P/E112K/K14D/W41F) (protein)
chain: MGSSHHHHHHSSGMGKSYPTVSADYQDAVEKAKKKLRGFIAEKRCAPLMLRLAFHSAGTFDKGTKTGGPFGTIKHPAELAHSANNGLDIAVRLLEPLKAEFPILSYADFYQLAGVVAVEVTGGPKVPFHPGREDKPEPPPEGRLPDPTKGSDHLRDVFGKAMGLTDQDIVALSGGHTIGAAHKERSGFEGPWTSNPLIFDNSYFTELLSGEKEGLLQLPSDKALLSDPVFRPLVDKYAADEDAFFADYAEAHQKLSELGFADAGSSKPEKPGSKITGSSGNDTQGSLITYSGGARG
The term Km denotes the concentration of substrate that gives half-maximal velocity. By kcat is commonly meant the number of substrate molecules converted per active site and unit of time at saturation. As to B1, in data set [1], the Km was determined as 580 ± 70 µM, the kcat is 460 ± 20 s⁻¹ and the kcat/Km is given as 7.93 ± 1.02 × 10^5 (s^−1 · M^−1).

B2: APEX2 + shell: APEX2 (evolved pea cytosolic ascorbate peroxidase), N-terminal His6, fused to S2CP(30), SEQ ID NO: 110, encapsulated in Cso-BMC (Cso-PSIIH) … (protein)
chain: B1 chain
With B2, the Km in data set [2] was determined as 790 ± 120 µM.
